Test results: article PMC10216714, “NMR and Patch-Clamp Characterization of Yeast Mitochondrial Pyruvate Carrier Complexes” (Biomolecules, 2023)

Legend:
[1] = target: T1, Saccharomyces cerevisiae mitochondrial pyruvate carrier 1 (Mpc1) with C-terminal 8×His-tag (Saccharomyces cerevisiae), P53157; experiment: SEC-MALS; Superdex 75 with Dawn HELEOS II, three-detector method (MALS/UV/RI), 0.3 mL/min; 100 mM Tris/HCl pH 7.5, 150 mM NaCl, 1 mM EDTA, 10 mM β-ME, 1 mM DPC, 2 mM LDAO; second elution peak of each complex; conditions: remark: other sources report otherwise
T1 chain: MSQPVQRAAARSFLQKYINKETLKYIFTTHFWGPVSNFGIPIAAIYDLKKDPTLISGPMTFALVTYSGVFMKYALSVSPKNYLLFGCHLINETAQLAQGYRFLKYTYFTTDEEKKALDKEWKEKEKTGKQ

[2] = target: T2, Mpc1^linker: Mpc1 with C-terminal ENLYFQG (TEV site), flexible linker (GGGGS)4, WSHPQFEK and 8×His-tag (Saccharomyces cerevisiae, UniProt P53157 1-130); experiment: SEC; monomers refolded alone or pre-mixed 1:1 in LDAO/DPC (2:1), then Superdex 75 10/300 GL in 100 mM Tris/HCl pH 7.5, 150 mM NaCl, 1 mM EDTA, 10 mM β-ME, 1 mM DPC, 2 mM LDAO; peaks analysed by SDS-PAGE with Coomassie staining; conditions: both partners purified
T2 construct: Mpc1, Saccharomyces cerevisiae, NCBI NM_001180945; The extension was added so that Mpc1 and Mpc2 can be told apart by size on SDS-PAGE; no TEV cleavage is described; not shown: 8×His, C-terminal, kept
T2 sequence (looked up): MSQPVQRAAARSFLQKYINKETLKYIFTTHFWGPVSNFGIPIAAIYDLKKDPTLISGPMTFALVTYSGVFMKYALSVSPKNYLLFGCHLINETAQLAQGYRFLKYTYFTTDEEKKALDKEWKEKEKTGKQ

[3] = target: the molecule itself; experiment: SEC-MALS; Superdex 75 with Dawn HELEOS II, three-detector method (MALS/UV/RI), 0.3 mL/min; 100 mM Tris/HCl pH 7.5, 150 mM NaCl, 1 mM EDTA, 10 mM β-ME, 1 mM DPC, 2 mM LDAO; second elution peak of each complex
[4] = target: T3, Saccharomyces cerevisiae mitochondrial pyruvate carrier 1 (Mpc1) with C-terminal 8×His-tag (Saccharomyces cerevisiae, UniProt P53157 1-130); experiment: paramagnetic relaxation enhancement (PRE) NMR; MTSL-labelled monomer co-refolded with 15N-labelled monomer; 1H-15N BEST-TROSY with and without vitamin C; 25 mM NaAc pH 6.0, 50 mM glutamic acid, 50 mM arginine, 10 mM β-ME, 1 mM EDTA, 1 mM DPC, 2 mM LDAO; 308 K, 850 MHz; conditions: both partners purified
T3 construct: Mpc1, Saccharomyces cerevisiae, NCBI NM_001180945; amplified from a cDNA library with printed primers that run from the ATG to the last codon before the stop; 15N-labelled where it was the observed partner in NMR; The reverse primer carries a BamHI site, so a few vector-coded residues may lie between Mpc1 and the His-tag (surmised); also called 15N-Mpc1; yeast Mpc1
T3 sequence (looked up): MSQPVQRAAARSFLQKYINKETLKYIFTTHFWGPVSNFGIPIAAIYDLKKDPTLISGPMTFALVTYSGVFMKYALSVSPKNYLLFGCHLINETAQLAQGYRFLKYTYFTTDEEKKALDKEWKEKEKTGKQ

B1: Saccharomyces cerevisiae mitochondrial pyruvate carrier 1 (Mpc1) with C-terminal 8×His-tag, P53157 1-130 (natural protein)
chain: MSQPVQRAAARSFLQKYINKETLKYIFTTHFWGPVSNFGIPIAAIYDLKKDPTLISGPMTFALVTYSGVFMKYALSVSPKNYLLFGCHLINETAQLAQGYRFLKYTYFTTDEEKKALDKEWKEKEKTGKQ
- stoichiometry N [1]: 2

B2: Saccharomyces cerevisiae mitochondrial pyruvate carrier 2 (Mpc2) with C-terminal 8×His-tag (natural protein, UniProt P38857 1-129, looked up)
chain: MSTSSVRFAFRRFWQSETGPKTVHFWAPTLKWGLVFAGFSDMKRPVEKISGAQNLSLLSTALIWTRWSFVIKPRNILLASVNSFLCLTAGYQLGRIANYRIRNGDSISQLCSYILSGADESKKEITTGR
notes: Mpc2, Saccharomyces cerevisiae, NCBI NM_001179293; amplified from a cDNA library with printed primers that run from the ATG to the last codon before the stop; 15N-labelled where it was the observed partner in NMR; The reverse primer carries a BamHI site, so a few vector-coded residues may lie between Mpc2 and the His-tag (surmised); also called 15N-Mpc2; yeast Mpc2
- stoichiometry N [2]: ~1
- stoichiometry N [3]: 2

B3: MTSL-labelled Mpc2 monomer (MTSL on C86 and C111) (natural protein, Saccharomyces cerevisiae, UniProt P38857 1-129, looked up)
chain: MSTSSVRFAFRRFWQSETGPKTVHFWAPTLKWGLVFAGFSDMKRPVEKISGAQNLSLLSTALIWTRWSFVIKPRNILLASVNSFLCLTAGYQLGRIANYRIRNGDSISQLCSYILSGADESKKEITTGR
modifications: MTSL spin label on C86 and C111
notes: Mpc2, Saccharomyces cerevisiae, NCBI NM_001179293; same construct as m2, not isotope-labelled; Same chain as m2 with the paramagnetic probe on its cysteines; also called MTSL–Mpc2; source: E. coli Rosetta 2 (DE3), inclusion bodies, purified
- binding result [4]: binds
